Experimental findings from paper PMC4409929 (Cell, 2015) are described below.

T1: TcEccC(cyto), cytoplasmic portion of EccC from Thermomonospora curvata (Thermomonospora curvata, UniProt D1A4G7 199-1315)
T1 sequence (looked up): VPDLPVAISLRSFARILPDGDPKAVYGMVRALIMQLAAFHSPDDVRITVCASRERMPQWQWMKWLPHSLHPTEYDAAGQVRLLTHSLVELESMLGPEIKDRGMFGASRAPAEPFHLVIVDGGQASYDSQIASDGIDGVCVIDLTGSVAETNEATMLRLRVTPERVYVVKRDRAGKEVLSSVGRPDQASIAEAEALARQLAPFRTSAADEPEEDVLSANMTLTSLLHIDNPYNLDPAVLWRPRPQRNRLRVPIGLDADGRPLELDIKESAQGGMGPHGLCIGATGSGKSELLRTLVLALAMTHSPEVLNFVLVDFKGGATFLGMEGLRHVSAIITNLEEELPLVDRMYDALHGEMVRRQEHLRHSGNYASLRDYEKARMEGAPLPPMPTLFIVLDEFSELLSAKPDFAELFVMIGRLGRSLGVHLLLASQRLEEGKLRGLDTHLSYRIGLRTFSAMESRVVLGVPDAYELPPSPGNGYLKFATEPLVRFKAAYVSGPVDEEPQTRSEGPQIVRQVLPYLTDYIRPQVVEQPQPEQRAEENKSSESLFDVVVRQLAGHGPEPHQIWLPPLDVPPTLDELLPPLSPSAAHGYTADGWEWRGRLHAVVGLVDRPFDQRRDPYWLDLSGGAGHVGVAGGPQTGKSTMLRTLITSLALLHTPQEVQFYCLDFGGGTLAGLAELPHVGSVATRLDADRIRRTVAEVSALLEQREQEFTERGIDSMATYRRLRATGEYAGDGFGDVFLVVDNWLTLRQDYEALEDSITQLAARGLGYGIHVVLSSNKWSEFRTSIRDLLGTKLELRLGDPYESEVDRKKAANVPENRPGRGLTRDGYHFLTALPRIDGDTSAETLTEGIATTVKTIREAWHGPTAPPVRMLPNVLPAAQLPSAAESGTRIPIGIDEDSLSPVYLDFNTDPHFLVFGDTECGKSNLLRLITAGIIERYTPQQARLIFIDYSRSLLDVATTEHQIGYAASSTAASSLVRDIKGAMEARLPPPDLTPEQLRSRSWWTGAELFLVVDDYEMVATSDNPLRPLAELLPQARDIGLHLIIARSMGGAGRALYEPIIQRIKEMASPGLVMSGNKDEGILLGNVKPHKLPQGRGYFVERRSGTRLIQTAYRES

B1: TcEsxA, EsxA of Thermomonospora curvata (natural protein, UniProt D1A4H1 1-97, looked up)
chain: MSDYTRANFGGLSEGEAQFSMTARALLDELTDLEGKLRAKLDRWDGDAQAAYWNYQKEWDAAAKDMQNVVAQLGVAIREAHDNYQAAERANTSIWAG
B2: TcEccC(cyto,R543A) (domain or fragment, Thermomonospora curvata, UniProt D1A4G7 199-1315, looked up)
chain: T1 sequence (looked up) with R345A
B3: TcEsxB, EsxB of Thermomonospora curvata (natural protein, UniProt D1A4H0 1-104, looked up)
chain: MAPQSAVDRAAMAQAAQDIEQSANAIRGMQNQLASAKDQLRSHWEGDASMAFEAVFNRFNEDFSRVLKALDGMHESLVQTRITYEAREEAAQQSVNRVQALLNG
B4: TcEsxAB heterodimer (complex, Thermomonospora curvata)
chain 1: B1 chain
chain 2: B3 chain

One data set addresses GbEssCb (Geobacillus thermodenitrificans, UniProt A4IKE7). Conditions: ATP bound in both ATPase domains.
In data set [1] the target is B3.
Data set [2] has as its target T1, TcEccC(cyto), cytoplasmic portion of …. The data set can be described thus: fluorescence polarisation. On the technique in general: Polarisation of emitted light reports the rotation of a fluorescent probe.
The data set “cross-linking” deals with the molecule itself. The data set can be described thus: cross-linking.
Data set [3] has as its target T1, TcEccC(cyto), cytoplasmic portion of ….
The target in the data set “TcEccC(cyto,R543A)” is B2. The data set can be described thus: cell-based or functional assay.
Data set [4] concerns the molecule itself.
Data set [5] has as its target T1, TcEccC(cyto), cytoplasmic portion of …. Briefly: fluorescence polarisation. This is another data set of the same source.

Changes are numbered by the printed parent chain. Numbers in names are those of the source. Where two headings read alike, the source gives them in different places. Where no end group is shown, it is not given here. The star is where a group is joined. 5FAM = O=C1OC2(c3ccc(O)cc3Oc3cc(O)ccc32)c2ccc(C(=O)*)cc21

Sequence of GbEssCb (A4IKE7 921-1479): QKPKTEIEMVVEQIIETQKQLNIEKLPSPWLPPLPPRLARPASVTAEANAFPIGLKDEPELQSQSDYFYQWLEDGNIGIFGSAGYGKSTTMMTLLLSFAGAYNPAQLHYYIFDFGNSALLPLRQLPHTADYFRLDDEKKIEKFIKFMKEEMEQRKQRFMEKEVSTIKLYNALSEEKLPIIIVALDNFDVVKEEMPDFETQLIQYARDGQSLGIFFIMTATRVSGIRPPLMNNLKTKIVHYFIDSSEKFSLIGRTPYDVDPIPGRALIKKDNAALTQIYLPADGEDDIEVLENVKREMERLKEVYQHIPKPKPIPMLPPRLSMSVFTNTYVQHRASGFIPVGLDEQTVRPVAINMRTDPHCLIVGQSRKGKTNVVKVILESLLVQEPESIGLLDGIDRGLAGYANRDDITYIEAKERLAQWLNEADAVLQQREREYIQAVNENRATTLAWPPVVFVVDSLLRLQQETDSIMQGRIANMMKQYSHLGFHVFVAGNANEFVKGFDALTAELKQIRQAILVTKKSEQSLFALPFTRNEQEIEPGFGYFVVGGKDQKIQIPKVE

As to `Nc1ncnc2c1ncn2[C@@H]1O[C@H](COP(=O)(O)OP(=O)(O)OP(=O)(O)O)[C@@H](O)[C@H]1O` [ATP], the X-ray crystal structure entry on GbEssCb is “has a very similar structure, with both domains bound to ATP”. As to B1, the stoichiometry N (in general, the number of molecules, sites or subunits per partner or assembly) in data set [1] is 1. Take 5FAM-VNRVQALLNG [fluorescently labeled signal sequence peptide 5-FAM-VNRVQALLNG]: the binding result in data set [2] is listed as “binds”. For B2, the binding result in “cross-linking” was “binds”. B3: the equilibrium dissociation constant (Kd) (usually the free concentration of one partner at which half of the binding sites on the other are occupied at equilibrium, for simple one-to-one binding) in data set [3] was around 10 µM. In the data set with TcEccC(cyto,R543A), the “ATPase activity of TcEccC(cyto,R543A) with added TcEsxB (0-10 μM)” value is 5 fold. In addition, the “stoichiometry N” value in data set [4] came out at 2. For B4, the binding result in data set [5] is given as “binds”.
